Results taken from patent publication US20220305003A1, “METHODS OF TREATING CANCER WITH AN INHIBITOR OF ZNF827” (CHILDREN'S MEDICAL RESEARCH INSTITUTE, priority 2019, published 2022).

T1: ZNF827 ZnF1-3 deleted (Homo sapiens, UniProt Q17R98 SEQ:4-997)
T1 chain: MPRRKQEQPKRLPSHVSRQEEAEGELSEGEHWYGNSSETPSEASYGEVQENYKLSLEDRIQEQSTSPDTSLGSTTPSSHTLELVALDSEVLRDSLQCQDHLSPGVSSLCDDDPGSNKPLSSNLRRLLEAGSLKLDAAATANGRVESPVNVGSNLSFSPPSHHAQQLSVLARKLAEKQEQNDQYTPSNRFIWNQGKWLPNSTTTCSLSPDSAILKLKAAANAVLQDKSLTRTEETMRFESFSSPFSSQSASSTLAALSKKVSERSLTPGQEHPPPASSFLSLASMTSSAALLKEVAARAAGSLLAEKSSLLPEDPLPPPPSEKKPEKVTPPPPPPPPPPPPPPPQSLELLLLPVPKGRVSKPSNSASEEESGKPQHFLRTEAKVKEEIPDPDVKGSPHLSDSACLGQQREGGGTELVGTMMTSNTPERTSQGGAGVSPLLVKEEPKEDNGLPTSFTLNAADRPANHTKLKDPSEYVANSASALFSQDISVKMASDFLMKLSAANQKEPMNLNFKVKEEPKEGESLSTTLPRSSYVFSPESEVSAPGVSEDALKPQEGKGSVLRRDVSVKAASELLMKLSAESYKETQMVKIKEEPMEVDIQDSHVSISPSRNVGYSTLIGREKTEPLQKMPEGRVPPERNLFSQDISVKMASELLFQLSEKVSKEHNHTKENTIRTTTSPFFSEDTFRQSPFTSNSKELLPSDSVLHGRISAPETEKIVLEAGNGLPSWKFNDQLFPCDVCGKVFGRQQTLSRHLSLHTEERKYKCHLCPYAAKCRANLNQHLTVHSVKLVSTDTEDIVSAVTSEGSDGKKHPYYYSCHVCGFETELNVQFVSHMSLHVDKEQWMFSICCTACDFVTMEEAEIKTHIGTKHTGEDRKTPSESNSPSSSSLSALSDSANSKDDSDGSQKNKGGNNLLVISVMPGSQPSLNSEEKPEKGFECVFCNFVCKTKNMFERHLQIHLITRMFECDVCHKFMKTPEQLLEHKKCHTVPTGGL

T2: ZNF827 full length (Homo sapiens, UniProt Q17R98 SEQ:1-1081)
T2 sequence: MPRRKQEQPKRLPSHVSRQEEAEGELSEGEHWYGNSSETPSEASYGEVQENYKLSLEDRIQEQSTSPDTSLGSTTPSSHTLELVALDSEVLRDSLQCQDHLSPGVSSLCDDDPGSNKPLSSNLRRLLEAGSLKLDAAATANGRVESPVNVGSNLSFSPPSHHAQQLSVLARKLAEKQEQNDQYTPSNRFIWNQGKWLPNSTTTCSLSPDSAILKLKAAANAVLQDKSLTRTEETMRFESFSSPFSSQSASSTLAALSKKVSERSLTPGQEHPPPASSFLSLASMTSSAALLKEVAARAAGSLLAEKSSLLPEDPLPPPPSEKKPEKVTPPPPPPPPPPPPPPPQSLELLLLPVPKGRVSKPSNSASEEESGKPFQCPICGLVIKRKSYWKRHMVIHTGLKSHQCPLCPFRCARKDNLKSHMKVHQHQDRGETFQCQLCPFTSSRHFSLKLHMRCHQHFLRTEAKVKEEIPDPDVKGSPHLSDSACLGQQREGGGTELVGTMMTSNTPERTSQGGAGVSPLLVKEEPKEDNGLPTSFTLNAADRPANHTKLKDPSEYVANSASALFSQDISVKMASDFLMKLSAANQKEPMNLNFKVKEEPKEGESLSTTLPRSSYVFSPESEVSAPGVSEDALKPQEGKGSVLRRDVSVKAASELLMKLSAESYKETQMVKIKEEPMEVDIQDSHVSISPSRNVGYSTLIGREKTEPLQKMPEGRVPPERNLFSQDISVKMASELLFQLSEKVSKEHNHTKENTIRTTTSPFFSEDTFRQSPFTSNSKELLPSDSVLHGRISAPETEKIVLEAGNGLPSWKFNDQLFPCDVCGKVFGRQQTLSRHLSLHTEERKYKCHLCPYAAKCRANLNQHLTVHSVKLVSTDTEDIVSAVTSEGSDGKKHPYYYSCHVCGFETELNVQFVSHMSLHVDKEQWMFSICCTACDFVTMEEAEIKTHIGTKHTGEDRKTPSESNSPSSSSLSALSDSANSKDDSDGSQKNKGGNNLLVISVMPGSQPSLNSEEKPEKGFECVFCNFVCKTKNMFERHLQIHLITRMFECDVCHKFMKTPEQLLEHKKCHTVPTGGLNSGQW

T3: ZNF827 ZnF4-9 deleted (Homo sapiens)
T3 chain: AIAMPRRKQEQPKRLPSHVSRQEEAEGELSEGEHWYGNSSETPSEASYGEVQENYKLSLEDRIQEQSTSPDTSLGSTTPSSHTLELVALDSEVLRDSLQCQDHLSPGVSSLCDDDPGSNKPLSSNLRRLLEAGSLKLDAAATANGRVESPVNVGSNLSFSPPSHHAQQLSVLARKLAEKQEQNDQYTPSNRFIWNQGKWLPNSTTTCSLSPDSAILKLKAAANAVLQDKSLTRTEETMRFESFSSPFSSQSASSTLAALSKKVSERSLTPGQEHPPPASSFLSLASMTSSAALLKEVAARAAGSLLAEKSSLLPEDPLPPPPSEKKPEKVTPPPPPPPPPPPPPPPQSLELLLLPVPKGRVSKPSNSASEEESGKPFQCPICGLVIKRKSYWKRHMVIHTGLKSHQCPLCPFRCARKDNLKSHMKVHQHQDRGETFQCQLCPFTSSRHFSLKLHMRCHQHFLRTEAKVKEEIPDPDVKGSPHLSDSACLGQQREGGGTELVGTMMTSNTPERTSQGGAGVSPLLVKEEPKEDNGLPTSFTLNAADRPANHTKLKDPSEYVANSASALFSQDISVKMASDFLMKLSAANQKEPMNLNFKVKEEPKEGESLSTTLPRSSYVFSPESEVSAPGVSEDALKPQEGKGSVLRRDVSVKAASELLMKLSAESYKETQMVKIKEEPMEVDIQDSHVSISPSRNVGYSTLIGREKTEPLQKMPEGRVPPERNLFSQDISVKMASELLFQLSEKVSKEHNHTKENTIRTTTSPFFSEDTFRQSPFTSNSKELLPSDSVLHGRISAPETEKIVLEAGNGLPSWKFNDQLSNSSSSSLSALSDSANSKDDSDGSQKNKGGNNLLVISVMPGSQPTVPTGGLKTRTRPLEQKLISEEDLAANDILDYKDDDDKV

B1: ss pentaprobe 9 (ssDNA)
DNA: ATGGGTAGGATAGGCGAGGCCAGACCAGCGGAGCAGGGGAGGGTTAGACGAGACTAGATCGAACTCAACGATTGAATGCACAGGACAGTAGAATAGAGCG
B2: ZNF827 full length (human zinc finger protein ZNF827) (other)
chain: MPRRKQEQPKRLPSHVSRQEEAEGELSEGEHWYGNSSETPSEASYGEVQENYKLSLEDRIQEQSTSPDTSLGSTTPSSHTLELVALDSEVLRDSLQCQDHLSPGVSSLCDDDPGSNKPLSSNLRRLLEAGSLKLDAAATANGRVESPVNVGSNLSFSPPSHHAQQLSVLARKLAEKQEQNDQYTPSNRFIWNQGKWLPNSTTTCSLSPDSAILKLKAAANAVLQDKSLTRTEETMRFESFSSPFSSQSASSTLAALSKKVSERSLTPGQEHPPPASSFLSLASMTSSAALLKEVAARAAGSLLAEKSSLLPEDPLPPPPSEKKPEKVTPPPPPPPPPPPPPPPQSLELLLLPVPKGRVSKPSNSASEEESGKPFQCPICGLVIKRKSYWKRHMVIHTGLKSHQCPLCPFRCARKDNLKSHMKVHQHQDRGETFQCQLCPFTSSRHFSLKLHMRCHQHFLRTEAKVKEEIPDPDVKGSPHLSDSACLGQQREGGGTELVGTMMTSNTPERTSQGGAGVSPLLVKEEPKEDNGLPTSFTLNAADRPANHTKLKDPSEYVANSASALFSQDISVKMASDFLMKLSAANQKEPMNLNFKVKEEPKEGESLSTTLPRSSYVFSPESEVSAPGVSEDALKPQEGKGSVLRRDVSVKAASELLMKLSAESYKETQMVKIKEEPMEVDIQDSHVSISPSRNVGYSTLIGREKTEPLQKMPEGRVPPERNLFSQDISVKMASELLFQLSEKVSKEHNHTKENTIRTTTSPFFSEDTFRQSPFTSNSKELLPSDSVLHGRISAPETEKIVLEAGNGLPSWKFNDQLFPCDVCGKVFGRQQTLSRHLSLHTEERKYKCHLCPYAAKCRANLNQHLTVHSVKLVSTDTEDIVSAVTSEGSDGKKHPYYYSCHVCGFETELNVQFVSHMSLHVDKEQWMFSICCTACDFVTMEEAEIKTHIGTKHTGEDRKTPSESNSPSSSSLSALSDSANSKDDSDGSQKNKGGNNLLVISVMPGSQPSLNSEEKPEKGFECVFCNFVCKTKNMFERHLQIHLITRMFECDVCHKFMKTPEQLLEHKKCHTVPTGGLNSGQW
notes: Co-IPs used lysates of human cells (U-2 OS, HT1080) from overexpression experiments; also called Myc-DDK-tagged ZNF827 full length; pCMV6 Myc-DDK-tagged ZNF827 (RC221405); not shown: Myc-DDK tag of the pCMV6 vector
B3: ss pentaprobe 3 (ssDNA)
DNA: CGCTCTATTCTACTGTCCTGTGCATTCAATCGTTGAGTTCGATCTAGTCTCGTCTAACCCTCCCCTGCTCCGCTGGTCTGGCCTCGCCTATCCTACCCAT

What was measured:
ZNF827 ZnF1-3 deleted = molecular target: T1, ZNF827 ZnF1-3 deleted; assay: EMSA; binding abrogated; conditions: tags: HaloTag (pHTN), expressed in HEK 293T, tag removed by HaloTEV cleavage; label: 32P (gamma)
Method: (§1) Purified proteins were quantified using a BCA assay using the Pierce™ BCA Protein Assay Kit according to the manufacturer's instructions. Equal amounts of purified proteins were incubated in binding buffer (20 mM HEPES-KOH, pH7.9, 100 mM KCl, 0.8 mM ZnCl₂, 0.2 mM EDTA, 5% glycerol, 0.5 mM DTT and 0.5 mM PMSF) with 6.25 μg/mL poly (dI:dC) and 50 ng/μL BSA on ice for 20 minutes. ˜0.12 nM (˜2.5 fmol) γ-³²P labelled DNA oligonucleotide (see Table 3) probes were added to samples and incubated on ice for another 30 minutes. Binding reactions were loaded onto an 8% native acrylamide/bisacrylamide (19:1, Biorad) gel pre-run at 100V in 0.5× TB buffer (89 mM Tris, 89 mM boric acid) for 20 minutes. Gels were electrophoresed at 150 V for 150 minutes at 4° C., dried at 65° C. for 45 minutes, and then exposed to a Phosphor screen overnight. Gel images were obtained by scanning the screens with a Typhoon FLA9500 Imager (GE Life Sciences).

ZNF827 full length = molecular target: T2, ZNF827 full length; assay: EMSA; 0.8 mM ZnCl2, 100 mM KCl, poly(dI:dC), on ice; conditions: tags: HaloTag (pHTN), expressed in HEK 293T, tag removed by HaloTEV cleavage; label: 32P (gamma)
Method: as §1

ZNF827 ZnF4-9 deleted = molecular target: T3, ZNF827 ZnF4-9 deleted; assay: as above; conditions: tags: HaloTag (pHTN), expressed in HEK 293T, tag removed by HaloTEV cleavage; label: 32P (gamma)
Method: as §1

[1] = molecular target: T4, topoisomerase 2-binding protein 1 (TOPBP1) (human, UniProt Q92547 1-1522); assay: co-IP with Myc antibody, Western blot
T4 construct: TOPBP1 in lysates of human cells, co-immunoprecipitated with Myc antibody
T4 sequence (Q92547 whole entry): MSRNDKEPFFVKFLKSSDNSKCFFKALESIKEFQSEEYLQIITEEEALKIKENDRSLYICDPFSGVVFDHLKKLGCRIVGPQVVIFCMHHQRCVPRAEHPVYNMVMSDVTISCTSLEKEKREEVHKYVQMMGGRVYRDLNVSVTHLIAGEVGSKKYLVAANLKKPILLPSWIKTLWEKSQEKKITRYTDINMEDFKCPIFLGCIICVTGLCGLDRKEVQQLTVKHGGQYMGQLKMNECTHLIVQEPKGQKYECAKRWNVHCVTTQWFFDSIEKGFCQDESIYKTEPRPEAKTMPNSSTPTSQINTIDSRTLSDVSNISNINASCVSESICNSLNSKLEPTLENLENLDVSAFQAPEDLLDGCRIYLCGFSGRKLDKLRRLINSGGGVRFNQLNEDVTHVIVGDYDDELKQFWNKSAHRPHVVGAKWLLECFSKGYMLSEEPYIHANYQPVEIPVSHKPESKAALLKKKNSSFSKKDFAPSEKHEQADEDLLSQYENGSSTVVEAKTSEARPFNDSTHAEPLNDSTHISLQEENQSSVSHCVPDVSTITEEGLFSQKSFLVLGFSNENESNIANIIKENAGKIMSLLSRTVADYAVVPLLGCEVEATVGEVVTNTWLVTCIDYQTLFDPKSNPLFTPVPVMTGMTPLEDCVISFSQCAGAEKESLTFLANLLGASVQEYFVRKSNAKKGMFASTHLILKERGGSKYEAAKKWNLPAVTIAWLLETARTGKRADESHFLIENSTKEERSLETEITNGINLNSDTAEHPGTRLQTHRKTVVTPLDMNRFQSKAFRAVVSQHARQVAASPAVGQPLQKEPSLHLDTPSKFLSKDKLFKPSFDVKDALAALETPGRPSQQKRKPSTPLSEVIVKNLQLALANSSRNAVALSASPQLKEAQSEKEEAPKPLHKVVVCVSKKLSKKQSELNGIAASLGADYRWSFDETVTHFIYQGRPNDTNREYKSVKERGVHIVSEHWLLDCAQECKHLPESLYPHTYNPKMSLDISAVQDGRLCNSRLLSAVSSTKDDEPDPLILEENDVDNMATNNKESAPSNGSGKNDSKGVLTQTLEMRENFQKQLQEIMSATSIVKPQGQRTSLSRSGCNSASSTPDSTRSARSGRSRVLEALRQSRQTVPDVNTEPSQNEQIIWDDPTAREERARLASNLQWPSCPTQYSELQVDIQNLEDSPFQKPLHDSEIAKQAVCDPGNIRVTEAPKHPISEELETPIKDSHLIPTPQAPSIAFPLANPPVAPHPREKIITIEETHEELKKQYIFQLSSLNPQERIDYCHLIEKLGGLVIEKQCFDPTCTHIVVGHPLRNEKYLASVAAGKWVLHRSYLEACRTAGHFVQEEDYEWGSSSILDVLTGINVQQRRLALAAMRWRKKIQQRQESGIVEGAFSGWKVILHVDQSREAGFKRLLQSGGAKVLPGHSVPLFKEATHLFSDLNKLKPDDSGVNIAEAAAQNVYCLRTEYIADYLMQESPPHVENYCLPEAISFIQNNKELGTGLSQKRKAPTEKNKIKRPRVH
Method: Resuspended cells were lysed by incubation with rotation for 1 hour at 4° C. For Benzonase treatment to remove DNA, samples were incubated in the lysis buffer described above supplemented with 25 U Benzonase nuclease (Novagen, Merck Millipore) for 2 hours at 4° C. Lysates were subjected to centrifugation at 13,000 rpm for 40 minutes at 4° C. to remove cell debris. The supernatant was then transferred to a fresh cold low bind 1.5 mL tube for subsequent immunoprecipitation. For immunoprecipitation, protein lysates were incubated with antibody for the protein of interest (10 μg per mL lysate) or IgG control (Refer to Tables 4 and 5 for the list of antibodies used in this study), preincubated with Dynabeads Protein G, as per manufacturer's instructions (Life Technologies), with rotation overnight at 4° C. The following day, beads were washed three times in cold lysis buffer and separated on a magnetic rack. Proteins were then eluted from the beads by resuspension in 50 mM Glycine pH 2.8 and sodium dodecyl sulphate (SDS) sample buffer (0.2 M Tris-Cl, pH 6.8, 28% glycerol, 13.5% β-mercaptoethanol, 6% SDS, 6 mM EGTA, and 0.07% bromophenol blue) for 10 minutes at 70° C. and subjected to Western blot analysis, as described below, to detect various protein interactions. […]

| Binder | binding result (ZNF827 ZnF1-3 deleted) | binding result (ZNF827 full length) | binding result (ZNF827 ZnF4-9 deleted) | binding result [1] |
| --- | --- | --- | --- | --- |
| B1 | no binding | binds | binds |  |
| B2 |  |  |  | binds |
| B3 | no binding | binds | binds |  |
